Source: the DeepSol protein solubility set

Assay: soluble on expression in E. coli; label from the status in PepcDB or PDB records

Sequence	soluble on expression in E. coli
MSLELTTQDIQLQQHFANKQAAIQGLAHALTAKGLVAEGYAQGMLNREAQHSTYLGNGIAIPHGTTDTRELVKQTGVTAMHFPQGLDWGDGNLVYVAIGIAAKSDEHLGILKQLTRVLSADGVEQALQQAKTAQQIIAIIKGEAQLTADFDASLIQLQFPASDMVQMSAVAGGLLKNTGCAENEFVADLVTKAPTHLGRGLWLVASDRAVKRTGMSIVTTANHCEYEQQAVKALIAFSVCNDVHQPLLNTITQCVFEQKQDQLLQADVQQLLNLFSGNAEQTIAQRTIAVGTITEETIAAETVAEPDSARAHTATFRIKNSHGLHARPGAMLVAEAKKFESNIRVSNLDGDGQVVNAKSLMKVIALGVKHNHQLQFTAEGPDAEAALQALGVAINAGLGEGHHHHHH	soluble
MSLELVIGTKRWSSWSLRPWLALKRAGVDFTELEVALRRGEATGDEIGCISPSRLAPALRDGDLVIWDSLAICEYLAERYPDAKLWPDDPVLRALGRSACAEMHSGFQALRGECPMALDEPPRKLDLSEATQKNVRRIVALWTGLLARSHGPFLLGDWSIADAFYTPVATRFRTYDVRLADYGDAGAAQGYSDRLLQTPEFLEWERAAQAGEGHHHHHH	soluble
MSLENAGSRPFLADFNGFSYLELKGLHTFERDLGEKMALEMVFLARGPSGLLLYNGQKTDGKGDFVSLALHNRHLEFRYDLGKGAAIIRSKEPIALGTWVRVFLERNGRKGALQVGDGPRVLGESPVPHTMLNLKEPLYVGGAPDFSKLARGAAVASGFDGAIQLVSLRGHQLLTQEHVLRAVDVAPFAGEGHHHHHH	soluble
MSLENKMPKDFFWGNSTSSMQTEGGWNEGGKGPSVYDVNTAGRSAKDWQVTNDNYHHYSQDLDLMKEMNMNMYRFQISWSRIVPDGDGEFNEEGIAFYNRLIDDLLARGIEPMICLYHFDMPLNLAEKYNGFLSRKVKEAFVRFGQEMMKRFADKVKYWIVFNEHNLYFADGFEHYSGVLKKELTLSDMYTVFHHTMLAHCELTQFLHENFEAKIGGMLATTEIYPATFSPKDNLYLRKFDEFYNRNLCDVYAFGHYSHEVMTYVKNQNIQMDFQKGDEEILKNGISDFISFSYYRSILLDASQLTENDAPNSYLTKGMKLNPLLEHNQWDWSIDPEGFRRILSRLYNEFGLPVFPIENGIGQSEIWDGKTKIADDLRIFYHQKHLEAMKKAIFTDGVEVMGYLGWGLIDIPASSGAIDKRYGAVYVDPKSHKRIPKKSFHWFKNVFASNGDHLDEGHHHHHH	not soluble
MSLEPLAETYQALVLAVRDYVTKNGFHGAVLGLSGGIDSALTLAIAADAIGADKVQAVMMPFRYTAQMSVEDAKEQAERMGVEFNIISIEPMFEGFMAQLAPLFEGTARDTTEENLQARCRGVLLMALSNKRRCIVLTTGNKSEMAVGYATLYGDMAGGFDVLKDVPKTLVFKLCEYRNSVDYVIPQRVIDRPPSAELAPDQVDQDSLPPYDILDAILKRYVEEDASVADMVAEGFEEAVVRKVIRLVDLNEYKRRQAAVGPRITARNEGHHHHHH	not soluble
MSLEQKQMEEKIMNLLTSAPDKTFALEDLEIEIALNNADNFKLMVKALVKLEDSGTIVRSRKNRYALPEKMDLVKGTFRAHERGFGFVLPEEKEMDDIFIPPNEVKDAMNGDLVFATITKRKGDNLAEGTIKKIVERKTTQIVGTYMEDLAGTPIVMPDDKRLFGEVEIDLEDGLKPVDGHKVIVELTEYATGHARARGVVKSIIGHRNDPGVDILSIIHKHGISIGFPEEVMEQVSKAPDLVDDSDIGNRRDLRDQMIITIDGADAKDLDDAVTVKQLPNGNWKLGVHIADVTHYVTEGSPLDIEAQERGTSVYLVDRVIPMLPHKLSNGICSLNPQVDRFTMSCEMEIDQEGHVVNHEIFESIIKTTERMTYTDVNDILVEKDEALREKYAPIVPMLEAMQNLAEILRRKREKRGAIDFDFKEARVVVDEDGHPEAVVMRERSAGEHLIEEFMLAANETVAEHFHWMDVPFIYRIHEDPKEDKLARFFEFITNFGLIVKGTANDIHPAALQQVLEEVKGKPEEMVVSTVMLRSMQQAKYDTVSAGHFGLSTDFYTHFTSPIRRYPDLIVHRLIREYLINGDVRPETLEKRAEELPEIAEHSSKMERRAVEAERETDELKKTEFMVDKVGERFIGIISSVTNFGLFIELPTTIEGLVHVSAMKGDYFKFHQNQLAMIGERTGQIYRIGDEVEVEVTKVDVDAREIDFALRSEGKPGPVSDKQKRQREKPIDKTRNFKSSSKNNRNKRRTGKSEDVKPKTERKDDEWYTKPKKKKKKKPFYQGVAKESPKKKKRREGHHHHHH	soluble
MSLERIDIASVKGGVGKSFIAYFLSKTLAASHKILLIDKDLTSTLSRVYNIKGNLLSYLTVGQSSLAYFKEVDSGLTVVNVGCSRKIKNVEPKKIADIYSGFSDHDLMIVDNPSIPSDVCLDTELQAYYTYLNEKRLDYNLILILPPNQLLLDESLAFMQLFKDYIKNELSISLGNDLVNFDVISSVINMYNPRERIDISKIKDLTSKIVKIPFKKEAIYTPFNQLNTPMEISELAKYVLEYLESREGHHHHHH	soluble
MSLETMNNKYKIMQLSDLHFGQDLGRCDDTNTSSGEHVDEFKCSSDLKTLKFIEKSIQEENPDLIVITGDLIDIHRSIDYKSIMLKSLQPILAHKIKFIYTFGDEIKDQLTKISIIQFLSTLPNCLNTVPQEVIEGITNYNFQIKQKSSTPSSSSSISVTVLDSEDHLIDDSQMTYLYRINNELLNDYKLLFFHYPLPQFRPKGKFKIVGSYNEKHELDRKTKLKFHDDIISCGYNVISVGHEHENDACLLSSSSSSSNSDKSIWLCYNSITGDSGITKLDKQYVRKMRLFEIDFEKNRILSWKRKEIDNQPFDYQLIYEKPQKEGHHHHHH	soluble
MSLEYKQASIFDNEVKKNKPLADRMRPKTLDEFVGQEHLLGKGKLLRELIEKDNITSMILWGPPGVGKTTLAMIIANMTNSKFITFSAVLSGIKEIKEIMAKAELDAMYGTRTVVFIDEIHRFNKAQQDAFLPHVEKGNIILIGATTENPSFEVNSALLSRSKVFVMKPLTEEDLLILLKRALKDEQNGFGMYKIGITDEQLKKIALFANGDARVALNTLEIAVMGAKVIEGERIVTDDILADAMQKKTLLYDKQGEEHYNLISAFHKSLRNSDWDAAVYWLARMLEAGEDPLYIARRMIRFASEDIGLADPQALEMAVAAYNACHYIGIPECSVNLAQVAIYLALAPKSNAVYMAYNKAKKDAEETIAESVPIHLRNAPTKLMKELGYGKGYKYAHDFEEKVTDMQCLPDNLKDRKYYVPTDSGFEKDIQKRLEQISNLKKKGEGHHHHHH	soluble
MSLFDFFKNKGSAATATDRLKLILAKERTLNLPYMEEMRKEIIAVIQKYTKSSDIHFKTLDSNQSVETIEVEIILPR	not soluble
MSLFRLVFVMDIFNRNVVLAKGGIRENYRPVSDSSAVCRTSDPLEILEILRPKEVYIADLNVLQGKGPLDMNAEIIREVSFKADTMLDSGVSSSKDVDRALSIAGTAVIGTETGTLEVIKDSISRNPGRISVSIDIKHGKLLKQDPKIPEDPFEIVKILNRLPLKDLIFLDLDRVGTASGFDPEFLRKLAESSAHDVLLAGGVRGMKDLFALDSLGIKGALVATAIHSGEVSPEVMTLGLKKEGHHHHHH	soluble
MSLGAYLSQPNTVKCSGDGVGAPRLPLPYGFSAMQGWRVSMEDAHNCIPELDSETAMFSVYDGHGGEEVALYCAKYLPDIIKDQKAYKEGKLQKALEDAFLAIDAKLTTEEVIKELAQIAGRPGMEGKEEPGSDSGTTAVVALIRGKQLIVANAGDSRCVVSEAGKALDMSYDHKPEDEVELARIKNAGGKVTMDGRVNGGLNLSRAIGDHFYKRNKNLPPEEQMISALPDIKVLTLTDDHEFMVIACDGIWNVMSSQEVVDFIQSKISQRDENGELRLLSSIVEELLDQCLAPDTSGDGTGCDNMTCIIICFKPRNTAELQPESGKRKLEEVLSTEGAEEEGHHHHHH	soluble
MSLGEEFHRNRTRFTKDPRVKSQDLLILALMDNQLRPTLHYQAQNPHRRVLVTGATGYIGGRLITELLAAGFQVRATSRKKTSLQRFDWYEDVEAVEADLTDATELDTLFKDVDVVYYLVHSMGGKNVDFEEQEQRTAENVIQAADQAGIKQIVYLSGLHPRNRKIEELSKHMRSREKVAQILLAGQTPALILRAATIIGSGSASFEIIRHLTERLPRMIAPQWITNQIEPLAIRDVLHYLISAADLKDPVNRSCDIGCGKSYEFADLLRIYADVRGLKRHVNSVPLNLPMDKLSGLWISLVTPVPFQLSFPLAQSMAEDAVTEEHSIKDIISDPPDGFIEYREAVELALAAEFDRGVPTSWDRSWTVQQPWAGQPTDPEWAGKAVYEDVRTEDTDLRAAQVWPIIEGLGGVNGWYSAPLLWRLRGIADRLIGGPGLGGRRDPRHLKLGDRIDWWRVTEIDPPHRLVLTAEMKVDGGAWLILEVADKENGGCTYTQRAIFEPKGEGHHHHHH	not soluble
MSLGETFTITKMNVERIKQEERLFCKSCASPVMIKAGQIKIPHFAHEKTMKCAFASEGESEEHLAAKKQIMAWYCYQSIPVEVESYFPEIKRQADIFVNGKAVIEFQRSSISISEMIQRTMDYLSIGLEVHWILGQVVRKEKGRICLSAFQQAFIQSDKKLGYHFWHYSTEREICTLYYHLTFEKGNRFFASEMKFSMKAPFSEWKKKLARIITRHAYVKRDRELERQKICFYYAKFKKHGQFMQKLFNAGYYLHYLPKEIGVDLEEQFLVITPAVEWQFDLWEKFFKGLEKGDTFSECCFFESFQSVVTQILTIWLSPNESLKLGKSYLSYLIGEGVLSTIPDNRYRVKRKMVFTNTRAAHIEGHHHHHH	not soluble
MSLGFHEVRFPTNLSFGSIGGPERRTEIVTLVNGFEERNSLWAHSRRRYDAGVALRSLDDIQALLAFFEARRGQLYGFRWKDWADYRSCPATASPGPKDQPLGIGDGISREFALVKTYRSGSEQYVRPVAKPVAGSVKVAVAGAVLVEGAGFSVDETRGLVTLAAAPAEGAAVTAGFEFDVPVRFDTDRIQISMASFQAGEVPSVPVMEVRVEGHHHHHH	soluble
MSLGGANGKSGLRIWRNARLATMADGVAGLGIVEKGAIATRDGLIIYAGAEASMPALAGPGAETVDCEGRWITPGLIDCHTHLVYAGNRANEFEMRLAGATYEEVARAGGGIVSSVKSLRAANEDELVAQTLPRLDALMAEGVTTVEVKSGYGLDLDNEKKSLRAARRLANERPVTIRTTCLAAHALPPEAKGDKEAFVDLVAGTILPGVAAEKLADAVDGFCEGIAFSPEQIARVFDKARALGLPVKLHADQLSNLHGAALAASYGALSADHLEYTDEAGAAAMAKAGTVATILPGAYYFIRETKKPPVDLFRRHGVKMAVATDSNPGTSPLTSLLLTMNMAATLFGLTVDECLAGVTREAARALGLLDKTGTLEAGKSADLAIWDIERPAELVYRMGFNPLHARIWRGQGSLSAPNTQPAFTIRTAKGIITITTDPNSSSVDKLAAALEHHHHHH	soluble
MSLGHPVDTFRRENKALRESAARLQKAMNGVLETADDGDASARLLEWRQALNELQDVDKHYQRKEHLLSTCLERHGITGPSKVMWGKDDQIRELLKDTSVALRQSDTSVAELKVLAATTGAAAAGAVHEMIYKEEQILLPICLERFTADEWAEIWASSPRYGWCLVEPRQGYKPFTSEAAGRASVDGGVSLPTGALALEQLIAIFSTLPVDLTFVDANDRVAFFSEGPSRVFARSRTIVGRMVQNCHPPRSVDVVERILSDFREGRQNVAEFWLQFVGRFVHIRYFAVRSEDGRYLGTLEVTQDVGPIRALEGERRLLEYAEPSEGHHHHHH	not soluble
MSLGISEAFDLRPDYIISVIKDTKAKLVGFQFPEGLKRKGPELAKIVEEATGAEVLISGDPCFGACDLDRTLLDHVELLFHFGHAELEDVRLSDKVYFIETRSSVDVRPVVEKALPGLKGEKIGLITTVQHVHKLHDVCRVLEAGGKTCVIGRGDSRLAYAGQVLGCNFSAARDEVCDEYLYIGSGDFHPLGVALSTKKRVLAADPFSGEVREVDPSRILRQRSAVIAKSLDAQVFGIIVSSKNGQMRMELASSLKEIAKKHGKEAHLILIDLVTPDQLLQFKVDAFVNTACPRLAVDEVGRFPSPMLTPQEFEIVLGEREWEKLVLDEITEEPVLEHHHHHH	soluble
